The assay deals with T1, GST-SVIP (Drosophila SVIP, CG32039) (Drosophila, UniProt Q8IQC6 1-82).
T1 chain: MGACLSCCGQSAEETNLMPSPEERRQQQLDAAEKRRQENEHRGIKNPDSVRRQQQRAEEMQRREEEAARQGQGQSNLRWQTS

B1: MBP-VCP^N-D1 (Drosophila VCP, N-terminal and first D1 ATPase domain) (domain or fragment)
chain: MADSKGEDLATAILKRKDRPNRLIVEEAQNDDNSVVSLSQAKMDELQLFRGDTVILKGKRRKETVCIVLSDDTCPDEKIRMNRVVRNNLCVHLSDVVSVQSCPDVKYGKRVRILPIDESTEGVTGNLFEIYLKPYFLEAYRPIHMGDNFIVRAAMRPIEFKVVLTDPEPYCIVAPETVIFCDGDPIKREEEEESLNAVGYDDIGGCRKQLAQIKEMVELPLRHPSLFKAIGVKPPRGILMYGPPGTGKTLIARAVANETGAFFFLINGPEIMSKLAGESESNLRKAFEEAEKNSPAIIFIDEIDAIAPKRDKTHGEVERRIVSQLLTLMDGMKKSSHLIVMAATNRPNSIDPALRRFGRFDREIDIGIPDATGRLEVLRIHTKNMKLHDDVDLEQIAAESHGHVGADLASLCSEAALQQIREKMDLIDLEDDKIDAEVLASLAVTMENFRYAMTKSSPSALRETVVEVPNTTWTDIGGLESVKKELQELVQYPVEHPDKFLKFGMQPSRGVLFYGPPGCGKTLLAKAIANECQANFISVKGPELLTMWFGESEANVRDIFDKARSAAPCVLFFDELDSIAKARGGNVGDAGGAADRVINQILTEMDGMGAKKNVFIIGATNRPDIIDPAILRPGRLDQLIYIPLPDDKSREAILKANLRKSPLAKEVDLTYIAKVTQGFSGADLTEICQRACKLAIRQAIEAEIRREKERAENQNSAMDMDEDDPVPEITSAHFEEAMKFARRSVSDNDIRKYEMFAQTLQQSRGFGQNFRFPGQTGNTSGSGNNLPVNSPGDNGDDDLYS
For B1, the Kd came out at 700 nM.

In general, Kd refers to the free concentration of one partner at which half of the binding sites on the other are occupied at equilibrium, for simple one-to-one binding. Lower therefore signals a tighter complex.
